{
  "source": "paper PMC6155552",
  "about": "“Arabidopsis thaliana alcohol dehydrogenase is differently affected by several redox modifications” (PLoS ONE, 2018)",
  "molecules": {"B1": {"name": "ADH (recombinant A. thaliana alcohol dehydrogenase, ADH1, At1g77120) (Arabidopsis thaliana) (protein)", "chain": "MSTTGQIIRCKAAVAWEAGKPLVIEEVEVAPPQKHEVRIKILFTSLCHTDVYFWEAKGQTPLFPRIFGHEAGGIVESVGEGVTDLQPGDHVLPIFTGECGECRHCHSEESNMCDLLRINTERGGMIHDGESRFSINGKPIYHFLGTSTFSEYTVVHSGQVAKINPDAPLDKVCIVSCGLSTGLGATLNVAKPKKGQSVAIFGLGAVGLGAAEGARIAGASRIIGVDFNSKRFDQAKEFGVTECVNPKDHDKPIQQVIAEMTDGGVDRSVECTGSVQAMIQAFECVHDGWGVAVLVGVPSKDDAFKTHPMNFLNERTLKGTFFGNYKPKTDIPGVVEKYMNKELELEKFITHTVPFSEINKAFDYMLKGESIRCIITMGA", "notes": "tag removal not mentioned"}, "B2": {"name": "ADH (recombinant A. thaliana alcohol dehydrogenase, ADH1, At1g77120) (Arabidopsis thaliana; C243S) (protein)", "chain": "B1 chain with C243S", "notes": "tag removal not mentioned"}},
  "key": {"[1]": {"target": "T1, ADH (recombinant A. thaliana alcohol dehydrogenase, ADH1, At1g77120) (Arabidopsis thaliana, UniProt P06525)", "T1 construct": "tag removal not mentioned", "T1 sequence (P06525 1-379)": "B1 chain", "assay": "protection of activity against inactivation by H2O2 or DEA/NO", "format": "biochemical", "conditions": "0.02-0.2 mM NADH; 0.5 mM H2O2 or DEA/NO; 100 mM Tris-Cl pH 7.5; room temperature"}, "[2]": {"substrate": "NC(=O)c1ccc[n+]([C@@H]2O[C@H](COP(=O)(O)OP(=O)(O)OC[C@H]3O[C@@H](n4cnc5c(N)ncnc54)[C@H](O)[C@@H]3O)[C@@H](O)[C@H]2O)c1", "assay": "microplate ADH activity assay, non-linear regression", "format": "biochemical, Arabidopsis thaliana", "conditions": "ethanol-to-acetaldehyde direction; NAD+ varied 0-0.8 mM; 5 mM DTT", "description": "microplate ADH activity assay, non-linear regression on ADH (recombinant A. thaliana alcohol dehydrogenase, ADH1, At1g77120)"}},
  "note": "Where a chain is given by its changes, count along the chain named. In names and notes the source's numbering stands.",
  "data": [
    {"molecule": "NC(=O)C1=CN([C@@H]2O[C@H](COP(=O)(O)OP(=O)(O)OC[C@H]3O[C@@H](n4cnc5c(N)ncnc54)[C@H](O)[C@@H]3O)[C@@H](O)[C@H]2O)C=CC1", "note": "[NADH]", "values": [
      {"measurement": "protection of activity against inactivation by H2O2 or DEA/NO", "setting": "[1]", "value": "presence of NADH allows the enzyme to keep a significantly higher activity level"}
    ]},
    {"molecule": "B1", "values": [
      {"measurement": "Km", "setting": "[2]", "value": "166 ± 17", "unit": "µM"},
      {"measurement": "kcat", "setting": "[2]", "value": "31.5 ± 2.7", "unit": "s⁻¹"},
      {"measurement": "kcat/Km", "setting": "[2]", "value": "191000 ± 8000", "unit": "M⁻¹ s⁻¹"}
    ]},
    {"molecule": "B2", "values": [
      {"measurement": "Km", "setting": "[2]", "value": "251 ± 17", "unit": "µM"},
      {"measurement": "kcat", "setting": "[2]", "value": "52.1 ± 3", "unit": "s⁻¹"},
      {"measurement": "kcat/Km", "setting": "[2]", "value": "208000 ± 5000", "unit": "M⁻¹ s⁻¹"}
    ]}
  ]
}
